Percent inhibition by L-fucose and EC50 data for one substance are collected here from paper PMC12582335.

Assay [1] has as its target SARS-CoV-2 Wuhan spike protein trimer (AcroBiosystems) (SARS-CoV-2 (Wuhan)) (UniProt P0DTC2). The assay can be described thus: ELISA; Wuhan spike 2 µg/mL coated; rCL-11 3 µg/mL with L-fucose or D-galactose (0 to 200 mM) or 20 mM EDTA, 18 h at 4 °C.
The target in assay [2] is SARS-CoV-2 Omicron BA.1 spike protein trimer (AcroBiosystems) (SARS-CoV-2 (Omicron BA.1)) (UniProt P0DTC2). Kind of assay: ELISA; spike trimer (Wuhan or Omicron BA.1) or BSA coated on Nunc MaxiSorp plates in carbonate/bicarbonate buffer, 18 h at 4 °C; rCL-11 (CHO) in solution, either titrated on 2 µg/mL spike or 3 µg/mL on a range of spike; detected with rabbit anti-human CL-11 and HRP anti-rabbit IgG. A general note: In an ELISA, binding on a coated surface is turned into a signal by an enzyme label.

Assay [3] addresses SARS-CoV-2 Wuhan spike protein trimer (AcroBiosystems) (SARS-CoV-2 (Wuhan)) (UniProt P0DTC2). The description is as above.

Some results are limits rather than exact numbers.

As a reminder, the EC50 is the midpoint of the concentration-response curve. The low end stands for a more potent agent, the high end for a less potent agent. Turning to “recombinant collectin-11 (rCL-11), CHO-expressed (from UniProt Q9BWP8 26-271) (natural protein)”, in assay [1], the percent inhibition by L-fucose was > 90%. Moreover, the figures for the EC50 in assay [2] and in assay [3] were 6 nM and 7.6 nM, respectively.
